The record followed here is patent US12246066 (AGENUS, dated 2025).

The labels stand for the following.
B1: AGEN1884.H3 (IgG1 L235V/F243L/R292P/Y300L/P396L) (antibody)
heavy: EVQLVESGGGLVKPGGSLRLSCAASGFTFSSYSMNWVRQAPGKGLEWVSSISSSSSYIYYAESVKGRFTISRDNAKNSLYLQMNSLRAEDTAVYYCARVGLFGPFDIWGQGTLVTVSSASTKGPSVFPLAPSSKSTSGGTAALGCLVKDYFPEPVTVSWNSGALTSGVHTFPAVLQSSGLYSLSSVVTVPSSSLGTQTYICNVNHKPSNTKVDKRVEPKSCDKTHTCPPCPAPELVGGPSVFLLPPKPKDTLMISRTPEVTCVVVDVSHEDPEVKFNWYVDGVEVHNAKTKPPEEQYNSTLRVVSVLTVLHQDWLNGKEYKCKVSNKALPAPIEKTISKAKGQPREPQVYTLPPSREEMTKNQVSLTCLVKGFYPSDIAVEWESNGQPENNYKTTPLVLDSDGSFFLYSKLTVDKSRWQQGNVFSCSVMHEALHNHYTQKSLSLSPG
light: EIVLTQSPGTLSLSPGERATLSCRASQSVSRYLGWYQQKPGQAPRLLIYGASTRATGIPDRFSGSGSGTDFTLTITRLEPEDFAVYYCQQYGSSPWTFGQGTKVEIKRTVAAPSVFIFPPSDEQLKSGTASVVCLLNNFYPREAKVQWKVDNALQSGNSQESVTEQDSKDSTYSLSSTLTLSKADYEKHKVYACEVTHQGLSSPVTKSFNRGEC
B2: AGEN1884.H3 (IgG1 S239D/A330L/I332E) (antibody)
heavy: EVQLVESGGGLVKPGGSLRLSCAASGFTFSSYSMNWVRQAPGKGLEWVSSISSSSSYIYYAESVKGRFTISRDNAKNSLYLQMNSLRAEDTAVYYCARVGLFGPFDIWGQGTLVTVSSASTKGPSVFPLAPSSKSTSGGTAALGCLVKDYFPEPVTVSWNSGALTSGVHTFPAVLQSSGLYSLSSVVTVPSSSLGTQTYICNVNHKPSNTKVDKRVEPKSCDKTHTCPPCPAPELLGGPDVFLFPPKPKDTLMISRTPEVTCVVVDVSHEDPEVKFNWYVDGVEVHNAKTKPREEQYNSTYRVVSVLTVLHQDWLNGKEYKCKVSNKALPLPEEKTISKAKGQPREPQVYTLPPSREEMTKNQVSLTCLVKGFYPSDIAVEWESNGQPENNYKTTPPVLDSDGSFFLYSKLTVDKSRWQQGNVFSCSVMHEALHNHYTQKSLSLSPG
light: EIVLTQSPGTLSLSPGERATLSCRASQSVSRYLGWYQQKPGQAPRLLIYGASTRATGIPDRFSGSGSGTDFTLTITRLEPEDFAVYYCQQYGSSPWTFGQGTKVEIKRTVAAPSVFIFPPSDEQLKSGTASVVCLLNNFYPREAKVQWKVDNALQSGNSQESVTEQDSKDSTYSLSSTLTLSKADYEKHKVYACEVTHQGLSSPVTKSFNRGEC
notes: Section 7.2.2 prints 'A330E'; also called AGEN1884.H3 (IgG1-S239D/A330E/I332E) as printed in section 7.2.2
B3: AGEN1884.H1.1 (IgG1) (antibody, V domains shown)
VH: EVQLVESGGGLVKPGGSLRLSCAASGFTFSSYSMNWVRQAPGKGLEWVSSISSSSSYIYYADSVKGRFTISRDNAKNSLYLQMNSLRAEDTAVYYCARVGLFGPFDIWGQGTMVTVSS
VL: EIVLTQSPGTLSLSPGERATLSCRASQSVSRYLGWYQQKPGQAPRLLIYGASTRATGIPDRFSGSGSGTDFTLTITRLEPEDFAVYYCQQYGSSPWTFGQGTKVEIK
B4: AGEN1884.H2.2 (IgG1) (antibody, V domains shown)
VH: EVQLVESGGGLVKPGGSLRLSCAASGFTFSSYSMNWVRQAPGKGLEWVSSISSSSSYIYYAESVKGRFTISRDNAKNSLYLQMNSLRAEDTAVYYCARVGLFGPFDIWGQGTMVTVSS
VL: EIVLTQSPGTLSLSPGERATLSCRASQSVSRYLGWYQQKPGQAPRLLIYGASTRATGIPDRFSGSGSGTDFTLTITRLEPEDFAVYYCQQYGSSPWTFGQGTKVEIK
B5: AGEN1884.H2.3 (IgG1) (antibody, V domains shown)
VH: EVQLVESGGGLVKPGGSLRLSCAASGFTFSSYSMNWVRQAPGKGLEWVSSISSSSSYIYYAESVKGRFTISRDNAKNSLYLQMNSLRAEDTAVYYCARVGLMGPFDIWGQGTLVTVSS
VL: EIVLTQSPGTLSLSPGERATLSCRASQSVSRYLGWYQQKPGQAPRLLIYGASTRATGIPDRFSGSGSGTDFTLTITRLEPEDFAVYYCQQYGSSPWTFGQGTKVEIK
B6: AGEN1884.H1.2 (IgG1) (antibody, V domains shown)
VH: EVQLVESGGGLVKPGGSLRLSCAASGFTFSSYSMNWVRQAPGKGLEWVSSISSSSSYIYYADSVKGRFTISRDNAKNSLYLQMNSLRAEDTAVYYCARVGLMGPFDIWGQGTLVTVSS
VL: EIVLTQSPGTLSLSPGERATLSCRASQSVSRYLGWYQQKPGQAPRLLIYGASTRATGIPDRFSGSGSGTDFTLTITRLEPEDFAVYYCQQYGSSPWTFGQGTKVEIK
B7: AGEN1884.H2.1 (IgG1) (antibody, V domains shown)
VH: EVQLVESGGGLVKPGGSLRLSCAASGFTFSSYSMNWVRQAPGKGLEWVSSISSSSSYIYYADSVKGRFTISRDNAKNSLYLQMNSLRAEDTAVYYCARVGLFGPFDIWGQGTLVTVSS
VL: EIVLTQSPGTLSLSPGERATLSCRASQSVSRYLGWYQQKPGQAPRLLIYGASTRATGIPDRFSGSGSGTDFTLTITRLEPEDFAVYYCQQYGSSPWTFGQGTKVEIK
B8: AGEN1884.H1.3 (IgG1) (antibody, V domains shown)
VH: EVQLVESGGGLVKPGGSLRLSCAASGFTFSSYSMNWVRQAPGKGLEWVSSISSSSSYIYYAESVKGRFTISRDNAKNSLYLQMNSLRAEDTAVYYCARVGLMGPFDIWGQGTMVTVSS
VL: EIVLTQSPGTLSLSPGERATLSCRASQSVSRYLGWYQQKPGQAPRLLIYGASTRATGIPDRFSGSGSGTDFTLTITRLEPEDFAVYYCQQYGSSPWTFGQGTKVEIK

One test has as its target T1, human CTLA-4 on Jurkat cells engineered to constitutively express human CTLA-4 (Promega) (human, UniProt P16410 36-223).
T1 construct: Bought cell line; also called CTLA-4-expressing cells; cells expressing human CTLA-4
Put plainly: flow cytometry, 5 µg/ml antibody on Jurkat cells expressing human CTLA-4. As to the method:
The binding of anti-CTLA-4 antibodies AGEN1884.H3 (IgG_1 S239D/I332E), AGEN1884.H3 (IgG_1 S239D/A330L/I332E), and AGEN1884.H3 (IgG_1L235V/F243L/R292P/Y300L/P396L) to CTLA-4-expressing cells was characterized similarly as described above. Briefly, Jurkat cells engineered to express human CTLA-4 (Promega) were stained first with 5 μg/ml of an anti-CTLA-4 antibody or an isotype control antibody and then with an anti-human IgG secondary antibody (Thermo Scientific, Cat #31529). The cells were analyzed using BD FACS Canto II.
For B1, the binding result is on record as “binds”.
For the molecule B2, the binding result is listed as “binds”.

The next test has as its target T1, human CTLA-4 on Jurkat cells engineered …. Put plainly: flow cytometry, 2 µg/ml antibody on Jurkat cells expressing human CTLA-4. As to the method:
Jurkat cells engineered to constitutively express human CTLA-4 (Promega) were used to analyze the binding of anti-CTLA-4 antibodies. Briefly, the cells were stained at 5 ×10^5 cells/well using 2 µg/ml of antibody in a 96-well plate for 30 minutes at 4° C. The cells were washed twice and incubated for 20 minutes at 4° C. with an anti-human IgG secondary antibody (Thermo Scientific, Cat #31529). The cells were washed and suspended in […] of 2% paraformaldehyde (Alfa Aesar, Cat #43368) prepared in PBS. Data were collected with BD FACS Canto II.
For B3, the binding result is listed as “binds”.
As to B4, the binding result was “binds”.
B5: the binding result was “binds”.
Same read-out and setting: for B6 the value was “binds”; for B7, “binds”.
On to B8, for which the binding result was “binds”.
